This experiment has as its target miniTRIM37 RING–B-box-2–hcc (human | T. thermophilus) (UniProt O94972). Nature of the experiment: SEC-MALS.

“miniTRIM37 RING–B-box-2–hcc (from UniProt O94972 1-158; O94972 214-254)”: the stoichiometry N came out at 2.

The term stoichiometry N denotes the number of molecules, sites or subunits per partner or assembly.

The values are drawn from paper PMC13477270.
